US20060253917A1 (published 2006)
Values belong to the binder of their own block, whether it stands above or below them.

Experiments:
[1] = target: T1, OsS49462 aa 1-100 (Oryza sativa, UniProt Q01J96 179-278); assay: Y2H; input trait library
T1 construct: bait, Gal4 DBD fusion; also called PN20325; O. sativa Cyclin OsS49462, Fragment
T1 sequence: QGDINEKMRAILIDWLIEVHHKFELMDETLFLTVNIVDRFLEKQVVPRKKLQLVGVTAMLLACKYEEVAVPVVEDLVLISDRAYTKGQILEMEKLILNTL
Outline: (§1)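 Protein-protein interactions were detected with an automated, high-throughput yeast two-hybrid assay provided by Myriad Genetics Inc. (Salt Lake City, Utah). A bait clone encoding a defined amino-acid fragment of a rice protein was screened against a rice prey library, either the input trait or the output trait library. Prey clones were retrieved, and their encoding sequences were compared by BLAST against databases to identify the interacting proteins.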

[2] = target: T2, PN29970 aa 1-158 (Oryza sativa, UniProt A2WY50 120-277); assay: Y2H; output trait library
T2 construct: prey, AD fusion; also called Putative CorA-like Mg2+ Transporter Protein
T2 sequence: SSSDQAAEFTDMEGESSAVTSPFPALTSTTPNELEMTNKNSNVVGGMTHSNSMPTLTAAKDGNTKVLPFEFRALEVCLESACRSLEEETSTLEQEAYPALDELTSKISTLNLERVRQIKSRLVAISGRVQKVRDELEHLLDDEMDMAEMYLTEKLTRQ
Outline: as §1

[3] = target: T3, OsPN23390 aa 595-845 (Oryza sativa, UniProt Q7XPJ0 617-867); assay: Y2H; output trait library
T3 construct: prey, AD fusion
T3 sequence: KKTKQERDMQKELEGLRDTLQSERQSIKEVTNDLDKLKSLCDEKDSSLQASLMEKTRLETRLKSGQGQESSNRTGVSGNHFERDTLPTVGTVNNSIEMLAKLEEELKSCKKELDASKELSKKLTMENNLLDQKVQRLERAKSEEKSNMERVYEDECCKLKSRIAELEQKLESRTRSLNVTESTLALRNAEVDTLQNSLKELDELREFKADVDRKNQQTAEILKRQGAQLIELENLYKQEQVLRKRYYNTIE
Outline: as §1

[4] = target: T4, OsPN23390 aa 576-738 (Oryza sativa, UniProt Q7XPJ0 598-760); assay: Y2H; output trait library
T4 construct: prey, AD fusion
T4 sequence: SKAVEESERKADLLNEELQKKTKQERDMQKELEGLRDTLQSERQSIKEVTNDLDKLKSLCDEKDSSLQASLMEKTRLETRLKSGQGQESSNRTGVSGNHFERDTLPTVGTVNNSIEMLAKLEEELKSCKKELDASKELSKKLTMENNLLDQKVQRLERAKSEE
Outline: as §1

[5] = target: T5, OsPN29956 aa 96-235 (Oryza sativa, UniProt Q0JJ05 613-752); assay: Y2H; output trait library
T5 construct: prey, AD fusion; also called Novel Protein PN29956, Fragment, nuclear matrix constituent
T5 sequence: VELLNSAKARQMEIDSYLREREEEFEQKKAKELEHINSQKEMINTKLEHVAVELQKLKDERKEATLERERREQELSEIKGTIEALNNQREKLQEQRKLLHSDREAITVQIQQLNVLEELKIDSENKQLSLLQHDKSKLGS
Outline: as §1

[6] = target: T6, OsPN29956 aa 2-373 (Oryza sativa, UniProt Q0JJ05 519-890); assay: Y2H; output trait library
T6 construct: prey, AD fusion
T6 sequence: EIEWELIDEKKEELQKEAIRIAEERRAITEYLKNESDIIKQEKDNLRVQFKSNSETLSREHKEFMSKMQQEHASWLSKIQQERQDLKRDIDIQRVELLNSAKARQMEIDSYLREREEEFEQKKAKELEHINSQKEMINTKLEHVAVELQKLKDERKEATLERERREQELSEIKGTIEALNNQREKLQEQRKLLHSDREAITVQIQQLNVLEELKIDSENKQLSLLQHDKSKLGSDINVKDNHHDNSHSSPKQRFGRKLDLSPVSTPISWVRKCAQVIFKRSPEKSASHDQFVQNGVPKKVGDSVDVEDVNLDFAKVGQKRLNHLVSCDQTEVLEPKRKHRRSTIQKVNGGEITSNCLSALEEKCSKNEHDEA
Outline: as §1

[7] = target: T7, OsPN29965 aa 12-124 (Oryza sativa, UniProt Q6YZ52 874-986); assay: Y2H; output trait library
T7 construct: prey, AD fusion; also called Novel Protein PN29965, Fragment, Similar to A. thaliana Kinesin (Centromere Protein)-Like Heavy Chain-Like Protein
T7 sequence: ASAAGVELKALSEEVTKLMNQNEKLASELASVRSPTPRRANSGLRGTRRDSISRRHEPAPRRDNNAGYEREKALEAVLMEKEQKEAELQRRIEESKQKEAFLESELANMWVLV
Outline: as §1

[8] = target: T8, OsPN29969 aa 16-123 (Oryza sativa, UniProt A2XK00 17-123); assay: Y2H; output trait library
T8 construct: prey, AD fusion; also called Novel Protein PN29969, Similar to A. thaliana Unknown Protein BAB01990
T8 sequence: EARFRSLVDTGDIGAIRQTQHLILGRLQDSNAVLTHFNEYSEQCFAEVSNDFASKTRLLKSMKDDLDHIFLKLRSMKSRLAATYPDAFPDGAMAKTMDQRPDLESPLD
Outline: as §1

[9] = target: T9, OsPN25381 aa 30-218 (Oryza sativa, UniProt A3BV82 165-353); assay: Y2H; output trait library
T9 construct: prey, AD fusion; also called Protein 13357265 Putative CorA-like Mg2+ Transporter Protein
T9 sequence: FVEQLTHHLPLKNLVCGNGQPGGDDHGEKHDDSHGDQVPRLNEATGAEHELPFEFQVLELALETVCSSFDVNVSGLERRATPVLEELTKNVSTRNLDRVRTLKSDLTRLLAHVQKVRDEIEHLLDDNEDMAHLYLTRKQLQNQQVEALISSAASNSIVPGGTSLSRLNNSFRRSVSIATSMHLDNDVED
Outline: as §1

[10] = target: T10, OsFDRMADS6 aa 93-244 (Oryza sativa, UniProt P0C5B1 93-244); assay: Y2H; output trait library
T10 construct: prey, AD fusion; also called PN19766
T10 sequence: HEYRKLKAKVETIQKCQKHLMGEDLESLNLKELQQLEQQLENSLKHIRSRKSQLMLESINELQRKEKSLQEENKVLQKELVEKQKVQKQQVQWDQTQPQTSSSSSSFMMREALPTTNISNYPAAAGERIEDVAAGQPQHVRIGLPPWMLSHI
Outline: as §1

[11] = target: T11, OsMADS1 aa 82-241 (Oryza sativa, UniProt A2XDY1 82-241); assay: Y2H; output trait library
T11 construct: prey, AD fusion; also called PN19788; O. sativa MADS box protein MADS1
T11 sequence: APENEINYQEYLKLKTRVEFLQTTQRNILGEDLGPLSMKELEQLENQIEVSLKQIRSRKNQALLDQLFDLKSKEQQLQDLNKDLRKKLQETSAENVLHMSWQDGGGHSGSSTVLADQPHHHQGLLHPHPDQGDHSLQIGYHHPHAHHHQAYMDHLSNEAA
Outline: as §1

[12] = target: T12, OsMADS1 aa 71-257 (Oryza sativa, UniProt A2XDY1 71-257); assay: Y2H; output trait library
T12 construct: prey, AD fusion; also called PN19788
T12 sequence: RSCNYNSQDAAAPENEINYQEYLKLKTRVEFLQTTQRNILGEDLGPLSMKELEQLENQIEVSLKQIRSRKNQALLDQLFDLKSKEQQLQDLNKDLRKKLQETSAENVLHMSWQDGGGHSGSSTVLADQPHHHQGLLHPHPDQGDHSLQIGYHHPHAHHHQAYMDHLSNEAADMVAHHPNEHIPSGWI
Outline: as §1

[13] = target: T13, OsMADS6 aa 70-250 (Oryza sativa, UniProt Q6EU39 70-250); assay: Y2H; output trait library
T13 construct: prey, AD fusion; also called PN20233; O. sativa MADS box protein MADS6
T13 sequence: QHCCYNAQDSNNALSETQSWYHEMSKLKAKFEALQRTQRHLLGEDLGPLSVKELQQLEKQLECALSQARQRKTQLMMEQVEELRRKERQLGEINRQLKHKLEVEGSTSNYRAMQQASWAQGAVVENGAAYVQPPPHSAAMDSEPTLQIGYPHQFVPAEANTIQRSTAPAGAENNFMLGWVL
Outline: as §1

[14] = target: T14, OsRAP1B aa 1-158 (Oryza sativa, UniProt Q10CQ1 1-158); assay: Y2H; output trait library
T14 construct: prey, AD fusion; also called PN20232; O. sativa AP1-like MADS box protein RAP1B
T14 sequence: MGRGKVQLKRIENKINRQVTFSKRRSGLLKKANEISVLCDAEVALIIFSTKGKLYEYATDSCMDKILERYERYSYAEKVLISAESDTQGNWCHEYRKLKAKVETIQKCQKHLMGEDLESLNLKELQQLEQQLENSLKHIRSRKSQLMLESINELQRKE
Outline: as §1

binding result [1]: binds
B1: OsPN30848 aa 365-476 (other)
chain: DCSLAKPPAADKKDDRVPLPSSNGAPLLPSYPPLGYGIMSVPGAYGAAPASTAQPMLYAPRAPPGAAMVPMMLPDGRLVYVVQQPGGQLPLASPPPQQAGHRSGSGGRHGGS
notes: prey, AD fusion

binding result [2]: binds | binding result [3]: binds | binding result [4]: binds | binding result [5]: binds | binding result [6]: binds | binding result [7]: binds | binding result [8]: binds | binding result [9]: binds
B2: OsCYCOS2 aa 50-233 (other)
chain: KRGLLDKPAAKNQSGHRPMTRKFAATLANQPSIAPLAPIGSERQKRTADSAFHGPADMECTKITSDDLPLPMMSEMDEVMGSELKEIEMEDIEEAAPDIDSCDANNSLAVVEYVDEIYSFYRRSEGLSCVSPNYMLSQNDINEKMRGILIDWLIEVHYKLELLDETLFLTVNIIDRFLARENVV
notes: bait, Gal4 DBD fusion; also called PN20257; O. sativa Cyclin OsCYCOS2

binding result [10]: binds | binding result [11]: binds | binding result [12]: binds | binding result [13]: binds | binding result [14]: binds
B3: OsMADS45 aa 50-198 (other)
chain: NRGKLYEFCSTQSMTKTLEKYQKCSYAGPETAVQNRESEQLKASRNEYLKLKARVENLQRTQRNLLGEDLDSLGIKELESLEKQLDSSLKHVRTTRTKHLVDQLTELQRKEQMVSEANRCLRRKLEESNHVRGQQVWEQGCNLIGYERQ
notes: bait, Gal4 DBD fusion; also called PN20231; O. sativa MADS box protein MADS45
